Experimental data as given in the supplement of paper PMC10065799, “High-throughput profiling of sequence recognition by tyrosine kinases and SH2 domains using bacterial peptide display” (eLife, 2023).

Tests used:
Grb2 SH2 = Grb2 SH2 (UniProt P62993); test: SH2 binding enrichment of the phosphorylated peptide, bacterial display (enrichment ratio); higher = better substrate or ligand; peptides without Tyr show the background
c-Src SH2 = test: as above
SHP2-C SH2 = test: as above
Fer (mouse) = test: phosphorylation enrichment, bacterial display (enrichment ratio); higher = better substrate or ligand; peptides without Tyr show the background
Hck = Hck (UniProt P08631); test: as above
c-Src = test: as above
c-Abl (mouse) = test: as above
MERTK = MERTK (UniProt Q12866); test: as above
Fes = Fes (UniProt P07332); test: as above
EPHB1 = EPHB1 (UniProt P54762); test: as above
Fyn = Fyn (UniProt P06241); test: as above
EPHB2 = EPHB2 (UniProt P29323); test: as above
AncSZ = test: as above
Jak2 = Jak2 (UniProt O60674); test: as above
FGFR3 = FGFR3 (UniProt P22607); test: as above
FGFR1 = FGFR1 (UniProt P11362); test: as above
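Wherever SH2 binding enrichment of the phosphorylated peptide, bacterial display is given: peptide library displayed on the E. coli surface as eCPX fusions, selected cells deep-sequenced, score is each peptide's frequency after selection divided by its frequency in the input.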
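Wherever phosphorylation enrichment, bacterial display is given: 11-residue human phosphosite peptides and single-mutation variants displayed on the E. coli surface, counted by deep sequencing, each peptide's frequency after selection divided by its frequency in the unselected input library; frequency after pTyr selection over input frequency; kinase dosed for 20-30% of maximal phosphorylation in three min.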

EPHB2, sequence (P29323 whole entry, looked up): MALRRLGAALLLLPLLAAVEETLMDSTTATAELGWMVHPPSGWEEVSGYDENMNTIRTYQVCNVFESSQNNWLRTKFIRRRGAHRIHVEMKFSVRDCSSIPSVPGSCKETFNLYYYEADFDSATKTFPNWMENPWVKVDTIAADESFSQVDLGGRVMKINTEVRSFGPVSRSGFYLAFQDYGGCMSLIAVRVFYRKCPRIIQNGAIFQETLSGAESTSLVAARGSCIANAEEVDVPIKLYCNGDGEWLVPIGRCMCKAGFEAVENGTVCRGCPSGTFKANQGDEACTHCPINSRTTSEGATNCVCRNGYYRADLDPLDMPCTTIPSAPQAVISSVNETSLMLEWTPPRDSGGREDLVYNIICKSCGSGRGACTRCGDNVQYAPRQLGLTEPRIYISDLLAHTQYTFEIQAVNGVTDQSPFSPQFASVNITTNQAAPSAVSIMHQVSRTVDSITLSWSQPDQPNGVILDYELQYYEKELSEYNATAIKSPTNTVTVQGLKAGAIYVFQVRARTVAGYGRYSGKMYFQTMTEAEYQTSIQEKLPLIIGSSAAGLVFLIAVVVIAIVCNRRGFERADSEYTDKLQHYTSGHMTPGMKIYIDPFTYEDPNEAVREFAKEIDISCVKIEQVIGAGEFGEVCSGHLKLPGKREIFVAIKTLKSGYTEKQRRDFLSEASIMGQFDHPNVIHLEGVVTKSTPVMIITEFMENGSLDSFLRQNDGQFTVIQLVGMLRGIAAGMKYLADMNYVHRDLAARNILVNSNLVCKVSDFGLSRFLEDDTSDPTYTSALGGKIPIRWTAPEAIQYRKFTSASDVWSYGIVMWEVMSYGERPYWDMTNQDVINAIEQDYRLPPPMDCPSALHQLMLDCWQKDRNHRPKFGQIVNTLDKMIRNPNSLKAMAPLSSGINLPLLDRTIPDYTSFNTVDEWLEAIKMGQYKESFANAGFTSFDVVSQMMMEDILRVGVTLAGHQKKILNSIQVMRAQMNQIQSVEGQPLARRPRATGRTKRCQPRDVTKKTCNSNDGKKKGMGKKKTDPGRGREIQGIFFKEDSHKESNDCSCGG
Jak2, sequence (O60674 whole entry, looked up): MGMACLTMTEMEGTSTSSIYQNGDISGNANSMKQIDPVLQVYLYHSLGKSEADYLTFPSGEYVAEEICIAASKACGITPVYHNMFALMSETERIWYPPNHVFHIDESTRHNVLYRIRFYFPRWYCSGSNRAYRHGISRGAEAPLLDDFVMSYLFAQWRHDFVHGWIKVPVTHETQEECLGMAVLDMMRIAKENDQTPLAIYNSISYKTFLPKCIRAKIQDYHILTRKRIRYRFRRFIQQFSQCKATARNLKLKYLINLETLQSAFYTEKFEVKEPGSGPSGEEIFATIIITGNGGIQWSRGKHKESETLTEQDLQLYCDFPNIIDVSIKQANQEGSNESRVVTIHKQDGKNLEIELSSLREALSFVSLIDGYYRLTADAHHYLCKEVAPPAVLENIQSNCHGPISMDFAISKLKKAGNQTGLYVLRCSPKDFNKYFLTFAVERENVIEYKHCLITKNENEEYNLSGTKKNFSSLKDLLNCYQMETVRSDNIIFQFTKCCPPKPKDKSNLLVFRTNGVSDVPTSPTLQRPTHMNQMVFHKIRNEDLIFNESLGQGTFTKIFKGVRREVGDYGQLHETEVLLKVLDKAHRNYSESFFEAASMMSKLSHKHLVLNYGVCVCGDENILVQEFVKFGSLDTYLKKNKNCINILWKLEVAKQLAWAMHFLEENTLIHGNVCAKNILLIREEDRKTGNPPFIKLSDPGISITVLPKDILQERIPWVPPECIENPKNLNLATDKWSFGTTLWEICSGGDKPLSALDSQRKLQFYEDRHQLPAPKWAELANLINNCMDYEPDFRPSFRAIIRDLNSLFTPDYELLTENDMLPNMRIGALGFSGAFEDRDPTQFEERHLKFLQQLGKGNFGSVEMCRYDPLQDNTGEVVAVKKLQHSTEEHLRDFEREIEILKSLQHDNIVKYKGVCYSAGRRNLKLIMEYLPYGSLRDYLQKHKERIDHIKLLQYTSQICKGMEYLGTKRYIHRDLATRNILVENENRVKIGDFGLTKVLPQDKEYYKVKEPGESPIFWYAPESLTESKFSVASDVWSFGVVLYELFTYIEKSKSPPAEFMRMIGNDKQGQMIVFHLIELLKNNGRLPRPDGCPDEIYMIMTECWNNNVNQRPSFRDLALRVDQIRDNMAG
Hck, sequence (P08631 whole entry, looked up): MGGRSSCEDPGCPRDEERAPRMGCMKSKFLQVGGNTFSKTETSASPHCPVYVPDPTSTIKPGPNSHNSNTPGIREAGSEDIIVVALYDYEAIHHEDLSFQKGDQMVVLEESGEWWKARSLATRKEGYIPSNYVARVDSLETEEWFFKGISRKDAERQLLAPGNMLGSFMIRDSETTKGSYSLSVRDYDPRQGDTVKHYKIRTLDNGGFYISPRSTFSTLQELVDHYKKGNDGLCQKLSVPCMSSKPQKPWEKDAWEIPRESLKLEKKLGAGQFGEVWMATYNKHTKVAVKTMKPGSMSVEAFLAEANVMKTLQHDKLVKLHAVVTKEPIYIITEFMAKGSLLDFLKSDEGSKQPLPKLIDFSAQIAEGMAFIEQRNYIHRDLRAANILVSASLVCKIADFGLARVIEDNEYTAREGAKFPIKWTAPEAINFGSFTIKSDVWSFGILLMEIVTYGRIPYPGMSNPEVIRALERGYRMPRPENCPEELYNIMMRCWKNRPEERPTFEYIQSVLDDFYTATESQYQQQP
Fyn, sequence (P06241 whole entry, looked up): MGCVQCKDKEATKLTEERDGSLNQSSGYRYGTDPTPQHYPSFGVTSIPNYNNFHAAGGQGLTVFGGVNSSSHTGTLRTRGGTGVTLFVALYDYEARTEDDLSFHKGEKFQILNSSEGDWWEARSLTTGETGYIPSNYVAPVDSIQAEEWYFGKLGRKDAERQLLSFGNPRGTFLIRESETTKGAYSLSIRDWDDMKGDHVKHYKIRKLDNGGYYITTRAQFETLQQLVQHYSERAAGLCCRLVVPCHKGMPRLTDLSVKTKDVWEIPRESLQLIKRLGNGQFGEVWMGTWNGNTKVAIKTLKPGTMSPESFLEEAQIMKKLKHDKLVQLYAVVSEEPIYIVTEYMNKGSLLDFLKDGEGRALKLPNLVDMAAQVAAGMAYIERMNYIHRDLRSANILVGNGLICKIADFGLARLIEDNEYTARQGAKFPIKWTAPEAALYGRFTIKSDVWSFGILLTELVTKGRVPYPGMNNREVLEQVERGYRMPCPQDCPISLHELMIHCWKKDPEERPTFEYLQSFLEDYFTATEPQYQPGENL
FGFR3, sequence (P22607 whole entry, looked up): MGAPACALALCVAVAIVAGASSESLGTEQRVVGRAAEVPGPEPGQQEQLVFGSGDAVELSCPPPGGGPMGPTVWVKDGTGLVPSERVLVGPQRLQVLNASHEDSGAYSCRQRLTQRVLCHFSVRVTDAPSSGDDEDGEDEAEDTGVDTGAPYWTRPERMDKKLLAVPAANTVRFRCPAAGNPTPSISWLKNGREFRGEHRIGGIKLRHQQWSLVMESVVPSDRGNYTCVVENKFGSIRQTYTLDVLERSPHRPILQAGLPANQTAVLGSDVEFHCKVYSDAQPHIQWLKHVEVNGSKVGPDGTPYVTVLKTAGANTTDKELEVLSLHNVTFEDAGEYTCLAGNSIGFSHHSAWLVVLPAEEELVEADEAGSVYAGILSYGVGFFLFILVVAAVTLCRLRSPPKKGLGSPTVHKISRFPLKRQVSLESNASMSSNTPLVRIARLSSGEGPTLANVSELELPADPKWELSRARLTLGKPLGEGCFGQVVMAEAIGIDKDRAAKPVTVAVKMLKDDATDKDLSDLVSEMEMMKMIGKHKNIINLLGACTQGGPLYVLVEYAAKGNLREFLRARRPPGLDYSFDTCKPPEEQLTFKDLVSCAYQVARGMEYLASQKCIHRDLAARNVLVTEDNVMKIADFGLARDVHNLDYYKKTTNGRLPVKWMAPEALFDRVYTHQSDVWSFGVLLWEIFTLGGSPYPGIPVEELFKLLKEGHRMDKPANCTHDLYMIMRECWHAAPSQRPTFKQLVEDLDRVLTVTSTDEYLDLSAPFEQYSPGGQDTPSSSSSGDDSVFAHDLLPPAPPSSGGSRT
FGFR1, sequence (P11362 whole entry, looked up, the tested form may be a part): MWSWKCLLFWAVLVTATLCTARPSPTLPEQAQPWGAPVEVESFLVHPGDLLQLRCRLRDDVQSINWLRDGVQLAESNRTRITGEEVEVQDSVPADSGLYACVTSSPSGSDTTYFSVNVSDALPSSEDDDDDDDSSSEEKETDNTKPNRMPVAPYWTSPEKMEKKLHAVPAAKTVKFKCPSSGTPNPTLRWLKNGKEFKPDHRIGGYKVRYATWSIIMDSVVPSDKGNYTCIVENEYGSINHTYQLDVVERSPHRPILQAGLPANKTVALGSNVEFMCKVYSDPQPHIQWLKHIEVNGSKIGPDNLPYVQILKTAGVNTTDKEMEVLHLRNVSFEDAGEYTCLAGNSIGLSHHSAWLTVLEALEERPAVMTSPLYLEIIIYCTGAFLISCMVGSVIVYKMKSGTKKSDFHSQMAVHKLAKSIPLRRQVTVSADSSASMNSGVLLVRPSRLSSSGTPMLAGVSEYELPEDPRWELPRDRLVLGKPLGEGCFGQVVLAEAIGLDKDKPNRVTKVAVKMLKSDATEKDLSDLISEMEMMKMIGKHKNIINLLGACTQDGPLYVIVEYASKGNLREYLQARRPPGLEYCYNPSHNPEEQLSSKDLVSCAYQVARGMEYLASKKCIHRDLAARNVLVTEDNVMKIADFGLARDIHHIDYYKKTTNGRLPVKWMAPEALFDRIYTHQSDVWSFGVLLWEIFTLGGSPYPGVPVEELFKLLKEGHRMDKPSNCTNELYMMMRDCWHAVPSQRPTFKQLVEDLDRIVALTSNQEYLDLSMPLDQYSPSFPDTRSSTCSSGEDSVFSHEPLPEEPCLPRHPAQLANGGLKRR

Sequence: ENFDDYMKEVG [FABP4_Y20]
- SH2 binding enrichment (Grb2 SH2): 1.04
- SH2 binding enrichment (c-Src SH2): 0.802
- SH2 binding enrichment (SHP2-C SH2): 0.791
- phosphorylation enrichment (Fer (mouse)): 0.687
- phosphorylation enrichment (Hck): 0.527
- phosphorylation enrichment (c-Src): 0.539
- phosphorylation enrichment (c-Abl (mouse)): 0.707
- phosphorylation enrichment (MERTK): 0.396
- phosphorylation enrichment (Fes): 1.22
- phosphorylation enrichment (EPHB1): 0.579
- phosphorylation enrichment (Fyn): 0.496
- phosphorylation enrichment (EPHB2): 0.623
- phosphorylation enrichment (AncSZ): 1.23
- phosphorylation enrichment (Jak2): 1.06
- phosphorylation enrichment (FGFR3): 0.699
- phosphorylation enrichment (FGFR1): 0.569

Sequence: GPQGVYSNKLV [PTPN14_Y506]
- SH2 binding enrichment (Grb2 SH2): 0.654
- SH2 binding enrichment (c-Src SH2): 0.536
- SH2 binding enrichment (SHP2-C SH2): 0.724
- phosphorylation enrichment (Fer (mouse)): 0.407
- phosphorylation enrichment (Hck): 0.588
- phosphorylation enrichment (c-Src): 0.636
- phosphorylation enrichment (c-Abl (mouse)): 0.537
- phosphorylation enrichment (MERTK): 0.519
- phosphorylation enrichment (Fes): 0.642
- phosphorylation enrichment (EPHB1): 0.417
- phosphorylation enrichment (Fyn): 0.633
- phosphorylation enrichment (EPHB2): 0.502
- phosphorylation enrichment (AncSZ): 0.568
- phosphorylation enrichment (Jak2): 0.544
- phosphorylation enrichment (FGFR3): 0.51
- phosphorylation enrichment (FGFR1): 0.472

Sequence: ICRWVYPLTPE [EIF2B5_Y319_R315C]
- SH2 binding enrichment (Grb2 SH2): 0.883
- SH2 binding enrichment (c-Src SH2): 0.538
- SH2 binding enrichment (SHP2-C SH2): 0.795
- phosphorylation enrichment (Fer (mouse)): 0.405
- phosphorylation enrichment (Hck): 0.585
- phosphorylation enrichment (c-Src): 0.578
- phosphorylation enrichment (c-Abl (mouse)): 0.739
- phosphorylation enrichment (MERTK): 0.505
- phosphorylation enrichment (Fes): 1.36
- phosphorylation enrichment (EPHB1): 0.5
- phosphorylation enrichment (Fyn): 0.528
- phosphorylation enrichment (EPHB2): 0.542
- phosphorylation enrichment (AncSZ): 1.29
- phosphorylation enrichment (Jak2): 1.14
- phosphorylation enrichment (FGFR3): 0.733
- phosphorylation enrichment (FGFR1): 0.516

Sequence: RFLERYIFNRQ [HLA-DPB1_Y57_E62Q_YF]
- SH2 binding enrichment (Grb2 SH2): 0.901
- SH2 binding enrichment (c-Src SH2): 0.577
- SH2 binding enrichment (SHP2-C SH2): 0.833
- phosphorylation enrichment (Fer (mouse)): 0.75
- phosphorylation enrichment (Hck): 0.678
- phosphorylation enrichment (c-Src): 0.893
- phosphorylation enrichment (c-Abl (mouse)): 1.36
- phosphorylation enrichment (MERTK): 0.756
- phosphorylation enrichment (Fes): 1.63
- phosphorylation enrichment (EPHB1): 0.603
- phosphorylation enrichment (Fyn): 0.535
- phosphorylation enrichment (EPHB2): 0.29
- phosphorylation enrichment (AncSZ): 1.57
- phosphorylation enrichment (Jak2): 1.71
- phosphorylation enrichment (FGFR3): 0.642
- phosphorylation enrichment (FGFR1): 0.448

Sequence: MRALIYNSSTA [PLEKHA7_Y243]
- SH2 binding enrichment (Grb2 SH2): 0.794
- SH2 binding enrichment (c-Src SH2): 0.402
- SH2 binding enrichment (SHP2-C SH2): 0.486
- phosphorylation enrichment (Fer (mouse)): 0.424
- phosphorylation enrichment (Hck): 0.647
- phosphorylation enrichment (c-Src): 0.724
- phosphorylation enrichment (c-Abl (mouse)): 0.741
- phosphorylation enrichment (MERTK): 0.465
- phosphorylation enrichment (Fes): 0.772
- phosphorylation enrichment (EPHB1): 0.507
- phosphorylation enrichment (Fyn): 0.622
- phosphorylation enrichment (EPHB2): 0.453
- phosphorylation enrichment (AncSZ): 0.834
- phosphorylation enrichment (Jak2): 0.8
- phosphorylation enrichment (FGFR3): 0.493
- phosphorylation enrichment (FGFR1): 0.448

Sequence: LLNPSYNLPLD [TOM1L1_Y109_R108S]
- SH2 binding enrichment (Grb2 SH2): 0.685
- SH2 binding enrichment (c-Src SH2): 0.833
- SH2 binding enrichment (SHP2-C SH2): 0.618
- phosphorylation enrichment (Fer (mouse)): 0.808
- phosphorylation enrichment (Hck): 1.07
- phosphorylation enrichment (c-Src): 0.523
- phosphorylation enrichment (c-Abl (mouse)): 0.855
- phosphorylation enrichment (MERTK): 0.854
- phosphorylation enrichment (Fes): 1.45
- phosphorylation enrichment (EPHB1): 1.26
- phosphorylation enrichment (Fyn): 0.979
- phosphorylation enrichment (EPHB2): 0.711
- phosphorylation enrichment (AncSZ): 1.22
- phosphorylation enrichment (Jak2): 0.908
- phosphorylation enrichment (FGFR3): 1.14
- phosphorylation enrichment (FGFR1): 0.595

Sequence: FIPSNYVAEDR [FRK_Y104_YF]
- SH2 binding enrichment (Grb2 SH2): 0.82
- SH2 binding enrichment (c-Src SH2): 0.579
- SH2 binding enrichment (SHP2-C SH2): 0.868
- phosphorylation enrichment (Fer (mouse)): 0.427
- phosphorylation enrichment (Hck): 0.411
- phosphorylation enrichment (c-Src): 0.42
- phosphorylation enrichment (c-Abl (mouse)): 0.431
- phosphorylation enrichment (MERTK): 0.399
- phosphorylation enrichment (Fes): 0.657
- phosphorylation enrichment (EPHB1): 0.386
- phosphorylation enrichment (Fyn): 0.394
- phosphorylation enrichment (EPHB2): 0.443
- phosphorylation enrichment (AncSZ): 0.74
- phosphorylation enrichment (Jak2): 0.564
- phosphorylation enrichment (FGFR3): 0.502
- phosphorylation enrichment (FGFR1): 0.412

Sequence: PGVNYYFQVSA
- SH2 binding enrichment (Grb2 SH2): 1.04
- SH2 binding enrichment (c-Src SH2): 0.561
- SH2 binding enrichment (SHP2-C SH2): 0.629
- phosphorylation enrichment (Fer (mouse)): 0.907
- phosphorylation enrichment (Hck): 1.03
- phosphorylation enrichment (c-Src): 0.692
- phosphorylation enrichment (c-Abl (mouse)): 1.48
- phosphorylation enrichment (MERTK): 0.734
- phosphorylation enrichment (Fes): 2.14
- phosphorylation enrichment (EPHB1): 1.61
- phosphorylation enrichment (Fyn): 0.611
- phosphorylation enrichment (EPHB2): 1.49
- phosphorylation enrichment (AncSZ): 2.15
- phosphorylation enrichment (Jak2): 2.79
- phosphorylation enrichment (FGFR3): 3.16
- phosphorylation enrichment (FGFR1): 2.98

Sequence: HSLRDYKEALM [ADA2_Y337_H335R]
- SH2 binding enrichment (Grb2 SH2): 0.933
- SH2 binding enrichment (c-Src SH2): 0.467
- SH2 binding enrichment (SHP2-C SH2): 0.699
- phosphorylation enrichment (Fer (mouse)): 0.44
- phosphorylation enrichment (Hck): 0.679
- phosphorylation enrichment (c-Src): 0.56
- phosphorylation enrichment (c-Abl (mouse)): 0.751
- phosphorylation enrichment (MERTK): 0.649
- phosphorylation enrichment (Fes): 1.4
- phosphorylation enrichment (EPHB1): 0.775
- phosphorylation enrichment (Fyn): 0.388
- phosphorylation enrichment (EPHB2): 0.45
- phosphorylation enrichment (AncSZ): 0.746
- phosphorylation enrichment (Jak2): 1.03
- phosphorylation enrichment (FGFR3): 0.881
- phosphorylation enrichment (FGFR1): 0.601

Sequence: GKMSQYLESMQ [CYB5R3_Y130]
- SH2 binding enrichment (Grb2 SH2): 0.657
- SH2 binding enrichment (c-Src SH2): 0.415
- SH2 binding enrichment (SHP2-C SH2): 0.715
- phosphorylation enrichment (Fer (mouse)): 0.373
- phosphorylation enrichment (Hck): 0.494
- phosphorylation enrichment (c-Src): 0.517
- phosphorylation enrichment (c-Abl (mouse)): 0.548
- phosphorylation enrichment (MERTK): 0.435
- phosphorylation enrichment (Fes): 0.583
- phosphorylation enrichment (EPHB1): 0.336
- phosphorylation enrichment (Fyn): 0.457
- phosphorylation enrichment (EPHB2): 0.454
- phosphorylation enrichment (AncSZ): 0.646
- phosphorylation enrichment (Jak2): 0.539
- phosphorylation enrichment (FGFR3): 0.426
- phosphorylation enrichment (FGFR1): 0.444

Sequence: HDRNTYEKFLE [TF_Y666_G671E_YF]
- SH2 binding enrichment (Grb2 SH2): 0.972
- SH2 binding enrichment (c-Src SH2): 3.06
- SH2 binding enrichment (SHP2-C SH2): 0.639
- phosphorylation enrichment (Fer (mouse)): 0.56
- phosphorylation enrichment (Hck): 0.491
- phosphorylation enrichment (c-Src): 0.818
- phosphorylation enrichment (c-Abl (mouse)): 0.561
- phosphorylation enrichment (MERTK): 0.848
- phosphorylation enrichment (Fes): 1.03
- phosphorylation enrichment (EPHB1): 0.525
- phosphorylation enrichment (Fyn): 0.741
- phosphorylation enrichment (EPHB2): 0.64
- phosphorylation enrichment (AncSZ): 1.07
- phosphorylation enrichment (Jak2): 0.859
- phosphorylation enrichment (FGFR3): 0.522
- phosphorylation enrichment (FGFR1): 0.432

Sequence: TGDRPYVCPFD [YY1_Y383]
- SH2 binding enrichment (Grb2 SH2): 0.911
- SH2 binding enrichment (c-Src SH2): 1.6
- SH2 binding enrichment (SHP2-C SH2): 0.712
- phosphorylation enrichment (Fer (mouse)): 0.431
- phosphorylation enrichment (Hck): 0.464
- phosphorylation enrichment (c-Src): 0.456
- phosphorylation enrichment (c-Abl (mouse)): 0.706
- phosphorylation enrichment (MERTK): 0.481
- phosphorylation enrichment (Fes): 0.932
- phosphorylation enrichment (EPHB1): 0.474
- phosphorylation enrichment (Fyn): 0.509
- phosphorylation enrichment (EPHB2): 0.46
- phosphorylation enrichment (AncSZ): 1.04
- phosphorylation enrichment (Jak2): 0.653
- phosphorylation enrichment (FGFR3): 0.635
- phosphorylation enrichment (FGFR1): 0.59

Sequence: LKRCQYVTEKV [ALDOA_Y204]
- SH2 binding enrichment (Grb2 SH2): 0.742
- SH2 binding enrichment (c-Src SH2): 0.53
- SH2 binding enrichment (SHP2-C SH2): 0.654
- phosphorylation enrichment (Fer (mouse)): 0.794
- phosphorylation enrichment (Hck): 0.689
- phosphorylation enrichment (c-Src): 0.796
- phosphorylation enrichment (c-Abl (mouse)): 1.24
- phosphorylation enrichment (MERTK): 0.672
- phosphorylation enrichment (Fes): 1.75
- phosphorylation enrichment (EPHB1): 1.9
- phosphorylation enrichment (Fyn): 0.823
- phosphorylation enrichment (EPHB2): 0.89
- phosphorylation enrichment (AncSZ): 1.59
- phosphorylation enrichment (Jak2): 2.26
- phosphorylation enrichment (FGFR3): 0.924
- phosphorylation enrichment (FGFR1): 1.11

Sequence: RMDGKYACSFT [FLNB_Y704_T703K_YF]
- SH2 binding enrichment (Grb2 SH2): 0.935
- SH2 binding enrichment (c-Src SH2): 0.566
- SH2 binding enrichment (SHP2-C SH2): 0.638
- phosphorylation enrichment (Fer (mouse)): 0.701
- phosphorylation enrichment (Hck): 0.964
- phosphorylation enrichment (c-Src): 0.491
- phosphorylation enrichment (c-Abl (mouse)): 0.902
- phosphorylation enrichment (MERTK): 0.589
- phosphorylation enrichment (Fes): 1.28
- phosphorylation enrichment (EPHB1): 0.882
- phosphorylation enrichment (Fyn): 0.756
- phosphorylation enrichment (EPHB2): 0.977
- phosphorylation enrichment (AncSZ): 1.38
- phosphorylation enrichment (Jak2): 0.929
- phosphorylation enrichment (FGFR3): 1.45
- phosphorylation enrichment (FGFR1): 1.1

Sequence: VERRVYAEDPF [PCCA_Y401_C398R_YF]
- SH2 binding enrichment (Grb2 SH2): 1
- SH2 binding enrichment (c-Src SH2): 0.668
- SH2 binding enrichment (SHP2-C SH2): 0.777
- phosphorylation enrichment (Fer (mouse)): 0.39
- phosphorylation enrichment (Hck): 0.412
- phosphorylation enrichment (c-Src): 0.462
- phosphorylation enrichment (c-Abl (mouse)): 0.648
- phosphorylation enrichment (MERTK): 0.384
- phosphorylation enrichment (Fes): 0.76
- phosphorylation enrichment (EPHB1): 0.385
- phosphorylation enrichment (Fyn): 0.554
- phosphorylation enrichment (EPHB2): 0.499
- phosphorylation enrichment (AncSZ): 0.722
- phosphorylation enrichment (Jak2): 0.674
- phosphorylation enrichment (FGFR3): 0.481
- phosphorylation enrichment (FGFR1): 0.429
